Data set [1] concerns the molecule itself. Description: SAXS; batch SAXS at 2.5, 5 and 10 mg/ml; ensemble optimization method (EOM) with pools of dimers, hexamers and dodecamers.
Data set [2] concerns the molecule itself. Nature of the data set: cross-linking; BS3 at protein/cross-linker ratios of 1:10 and 1:60, protein 25-250 uM, read by denaturing SDS-PAGE.

B1: Hsp21, the 21-kDa chloroplast-localized small heat-shock protein of Arabidopsis thaliana (natural protein)
chain: not shown
notes: N-terminal peptide printed as 1MQDQR5, IXVXI motif 179IDVQI183, rigid bodies of residues 83-184. numbers count on: the mature protein; Dodecamer of two trimer-of-dimer discs; The deposited model lacks part of the NTR; also called Hsp21 WT; Hsp21WT; source: E. coli ER2566, purified (ammonium sulfate precipitation, SEC); copies: 12
Take B1: the stoichiometry N – broadly, a count of units in the complex or per binding partner – was 6 in data set [1] and 12 in data set [2].

(Values after publication PMC5427286, “Structural model of dodecameric heat-shock protein Hsp21: Flexible N-terminal arms interact with client proteins while C-terminal tails maintain the dodecamer and chaperone activity” (The Journal of Biological Chemistry, 2017).)
